The record followed here is patent US20250264471.

The target of this series is Biotin-Crosstide (Anaspec).

B1: Akt1-S473E-T308P (protein)
chain: HHHHHHMDFRSGSPSDNSGAEEMEVSLAKPKHRVTMNEFEYLKLLGKGTFGKVILVKEKATGRYYAMKILKKEVIVAKDEVAHTLTENRVLQNSRHPFLTALKYSFQTHDRLCFVMEYANGGELFFHLSRERVFSEDRARFYGAEIVSALDYLHSEKNVVYRDLKLENLMLDKDGHIKITDFGLCKEGIKDGATMKTFCGTPEYLAPEVLEDNDYGRAVDWWGLGVVMYEMMCGRLPFYNQDHEKLFELILMEEIRFPRTLGPEAKSLLSGLLKKDPKQRLGGGSEDAKEIMQHRFFAGIVWQHVYEKKLSPPFKPQVTSETDTRYFDEEFTAQMITITPPDQDDSMECVDSERRPHFPQFEYSASSTA
For B1, the KM (µM) (present results), peptide substrate is 9 µM.
